Experimental data reported in the supplement of paper PMC9170038.

System: MS2 coat protein
Assay: apparent KD of MS2 coat protein; designed switch direction (-1 OFF switch, 1 ON switch): 1; higher = weaker reporter binding
Summary of the method: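 Designed RNA switches were transcribed on Illumina chips by stalled E. coli RNA polymerase and titrated with SNAP-549-labelled MS2 coat protein from 0.7 or 1.5 nM, doubling to 3 µM. Step length ran from 0.8–1.5 h at the lowest concentration to 10–20 min at the highest. The apparent KD is the median over clusters for each design, from curve-fitted normalised cluster fluorescence.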

[1] = input ligand: microRNA oligo, concentration not stated
[2] = Eterna round: R95, input ligand: FMN 200 uM
[3] = Eterna round: R95, input ligand: microRNA oligo, concentration not stated
[4] = Eterna round: R95, input ligand: none

| Sequence | apparent KD of MS2 coat protein (input ligand: FMN 200 uM) | apparent KD of MS2 coat protein [1] | apparent KD of MS2 coat protein (input ligand: none) | apparent KD of MS2 coat protein [2] | apparent KD of MS2 coat protein [3] | apparent KD of MS2 coat protein [4] |
| --- | --- | --- | --- | --- | --- | --- |
| GUUCGUUUGAUAGGAUAUCGCUUAACAUGAGGAUCACCCAUGUUUACCACGCUGGUUUUUCGUACCGAGAAGGAUUCUGAUGAU [JL JR sub007 mod 1] (Eterna round: R96, puzzle: Same State NG 2) | 37.9 nM | 43.6 nM | 47.1 nM | – | – | – |
| ACAUGAGACCAAGGAUAUCUUGUACCUACAUGUGACAUGAGGAUCACCCAUGUGGUAAGUAUGAGGGAGAAGGUGGAGAUAUGU [Equivalence 25 - Jieux - Same State NG 2] (Eterna round: R96, puzzle: Same State NG 2) | 26.2 nM | 18.8 nM | 36.7 nM | – | – | – |
| UUAAUGAUGAUAGGAUAUACAUGAGGAAUCCUCGUAGAAGGAUCAUGACAUGAGGAUCACCCAUGUAACGCUCCGUAGAGCGUA [JL SSNG1 1.16] (Eterna round: R96, puzzle: Same State NG 1) | 220 nM | 94 nM | 250 nM | – | – | – |
| ACAUGAGGAUCACCCAUGUAGGCUCAGGAAACUGUGCCACAUGAGGAUAUGGAUCCUAAUUGGAUCCAGAAGGCAUGUAUUAUU [Fiskers NG3ss - 22] (Eterna round: R96, puzzle: Same State NG 3) | 112 nM | 41.6 nM | 66.1 nM | – | – | – |
| GAGCUCCAACGCGGAGCUCCACAUGAGGAUCACCCAUGUACACAGGAUAUCACUCCCUUUGGGAGUGAGAAGGGUGGUUCGGAA [Bebeave] (Eterna round: R96, puzzle: Same State NG 3) | 41.4 nM | 41.9 nM | 58.6 nM | – | – | – |
| GAGUGGCAGUUAGGAUAUAUAGUGAUAAUUACAAUAGAAGGAACAGACAUGAGGAUCACCCAUGUAGGACUAAUCCAGAGAGAG [Parity 38 - Jieux - Same State NG 1] (Eterna round: R96, puzzle: Same State NG 1) | 30.9 nM | 20.6 nM | 30.9 nM | – | – | – |
| AGUCCAGCCUGAGCUGGACAAAAGCAUGUACAUGAGGAUCACCCAUGUUCAUGUACAAGCUUUUUGCAAGUCAAAAU [Mat - hsa-mir-208a - Mod of JL - 80] (puzzle: Sensor for hsa-mir-208a) | – | – | – | 723 nM | 13.8 nM | 641 nM |
| CGCCAGAGAACAGGAUAUGGGCCGCGGCCUAAGGGCUGCUAACUCACAUGAGGAUCACCCAUGUCCCAGAAGGGUUCCUGGCUG [Gexeso] (Eterna round: R96, puzzle: Same State NG 2) | 602 nM | 31.4 nM | 45.8 nM | – | – | – |
| GGUAAACAUGAGGAUCACCCAUGUAAUAAUAUGGGAGGAUAUGGGAAUUAAUUAAUUAAACCAGAAGGCCUAAUGU [Mat - Same State 1 - D87] (puzzle: Same State 1) | – | – | – | 53.1 nM | 536 nM | 519 nM |
| AAACCACAUGAGGAUCACCCAUGUAAAAAUAUGGGAGGAUAUCGGAAUAAAAUAAAGAAACGAGAAGGCCUAAAAA [59%, Flamingo, 5] (Eterna round: R96, puzzle: Same State 1) | 26.6 nM | 212 nM | 256 nM | – | – | – |
| GCACAUGAGGAUCACCCAUGUGCGAGAAAGACGGACCGGAUACAGGAUAUGCGCGAACGGAAGACGCAGAAGGGUGACCAAAAC [Anmaed] (Eterna round: R96, puzzle: Same State NG 3) | 64.1 nM | 38.2 nM | 40.6 nM | – | – | – |
| AGAGAACAUGAGGAUCACCCAUGUAAGAGAAGUGUAGGAUAUGUGAGGAGCAGAGGAGGAACAGAAGGACAUGGAG [JR_SS!_Sub072] (puzzle: Same State 1) | – | – | – | 34.6 nM | 35.3 nM | 53.8 nM |
| GCGGAAACUCACAUGAGGAUCACCCAUGUUCCGGAAACGGCACAGGAUAUCUGUCCGAAAAGGUCAGAGAAGGGUGAAAUCCGC [Fiskers NG3ss - 92] (Eterna round: R96, puzzle: Same State NG 3) | 282 nM | 9.95 nM | 54.8 nM | – | – | – |
| GUAGGACAUGAGGAUCACCCAUGUAGGAGGGAACGAGGAUAUGUGAUUAGCGAGGAGAGGACAGAAGGCGUGGUAG [JR_SS1_Sub025] (puzzle: Same State 1) | – | – | – | 18.7 nM | 18.3 nM | 21.3 nM |
| UUAAUUAAUUAAUUAUACAUGAGGAUCACCCAUGUAAGUGAUCAGGAUAUCAGCUCGUUUAGAGCUGAGAAGGGAUCCAUGUAA [SSNG3/14-A3] (Eterna round: R96, puzzle: Same State NG 3) | 85.7 nM | 135 nM | 150 nM | – | – | – |
| AUUAUUUAUGCAGGAUAUGAUUAACAUGAGGAUCACCCAUGUGGUGUUGUGAGUAAGGAGAGUGAUCAGAAGGGCAUUUUUUCU [JMF's solution 55] (Eterna round: R96, puzzle: Same State NG 2) | 460 nM | 361 nM | 490 nM | – | – | – |
| CAAGUACAUGAGGAUCACCCAUGUAGAAGAGAUGCAGGAUAUGUGGGAAAAGGGAGUGUAACAGAAGGGCAAGGAG [JR_SS!_Sub018] (puzzle: Same State 1) | – | – | – | 50 nM | 55.4 nM | 59.9 nM |
| CUUUUUAAUGCAGGAUAUGAUCAACAUGAGGAUCACCCAUGUGGCGUUGUGAGUAGGGAGAGUGAUCAGAAGGGCGUCUCCUCG [SS-NG2-LRO09] (Eterna round: R96, puzzle: Same State NG 2) | 43.9 nM | 38 nM | 56.6 nM | – | – | – |
| GCCGGCUGGUGAGGAUAUGGCACCUUAUUGGUGCCAGAAGGCAUGUCAAUUGACAUGAGGAUCACCCAUGUAUUGUCGUUGGCG [salish99_SSNG1_r04_608] (Eterna round: R96, puzzle: Same State NG 1) | 819 nM | 194 nM | 399 nM | – | – | – |
| GCUGCAAUUAACGCCUACAUGAGGAUCACCCAUGUAUGUAGGCAGGAUAUCGUUUGCAAAGCAAACGAGAAGGGCUGUAGUAGC [Mat - Same State NG 3 - JL Mod - D37] (Eterna round: R96, puzzle: Same State NG 3) | 65.4 nM | 83.4 nM | 113 nM | – | – | – |
| GUAGCAUACCGAGGAUAUUCAUAUUAAAUACAUGAGGAUCACCCAUGUAAGGCCAAAAGGCCUUGGGAGAAGGCGGAAUGCUAC [Xeonanis - 20 Mod3] (Eterna round: R96, puzzle: Same State NG 2) | 20.7 nM | 32.5 nM | 67.3 nM | – | – | – |
| AGGUUCGUGCUAGGAUAUCUAGGAUAUGGACGAGGAUUACCCGAGCAGGAUUACCGCACCAGAGGAGAGAAGGAGCAACAAGAG [pwkr ssNG2 2F5 2FMN.13] (Eterna round: R96, puzzle: Same State NG 2) | 0.959 nM | 5.01 nM | 420 nM | – | – | – |
| AGCGAACAUGAGGAUCACCCAUGUAGACCGCGUGUGAUAACACAGGAUAUCAAAGGAAGAAGGAGUGAGAAGGGUGGGAAGGAG [Default title] (Eterna round: R96, puzzle: Same State NG 3) | 93.6 nM | 53.7 nM | 75.1 nM | – | – | – |
| GCCAACACAUGAGGAUAUGGCACCUUAUUGGUGCCAGAAGGCAUGUGAAUUCACAUGAGGAUCACCCAUGUAUUAUAGUUGGCA [Fiskers NG1ss - 19] (Eterna round: R96, puzzle: Same State NG 1) | 18.8 nM | 75.1 nM | 121 nM | – | – | – |
| GGAGCCGGCCUAGGAUAUUUCAUCAAAAAACAUGAGGAUCACCCAUGUAGGCCAGAAGGCCUUGGGAAGAAGGAGGUCGGCUCC [Loop Effect - C24] (Eterna round: R96, puzzle: Same State NG 2) | 10.2 nM | 14.6 nM | 19 nM | – | – | – |
| GCCAUCGUAUGAGGAUAUGGCACCGUUUCGGUGCCAGAAGGCAUGUCAAUUGACAUGAGGAUCACCCAUGUAUUAUCGAUGGCA [JL Fiskers NG1ss - 33 mod 6] (Eterna round: R96, puzzle: Same State NG 1) | 99.8 nM | 485 nM | 925 nM | – | – | – |
| GCACUGGCGGUAGGAUAUCUAGGAUAUGGGAAAGACUAAGUCUGUAGGUCACCUAACCCAGAAGGAGAGAAGGACCCUGUAAGG [pwkr ssNG2 2FMN + F9.22] (Eterna round: R96, puzzle: Same State NG 2) | 6.55 nM | 1.33 nM | 18.1 nM | – | – | – |
| UUCCCAGCGGGAGGAUAUGGUGCCUUGUUGGUGCUAGAAGGUCCAACAUGAGGAUCACCCAUGUGGGAGUGGUCUAAUGACCUC [SS NG10LRO08] (Eterna round: R96, puzzle: Same State NG 1) | 301 nM | 181 nM | 347 nM | – | – | – |
| AAUUAAGAUCAAGGAUAUCACGUCGUUUAGACGUGAGAAGGUGAUAAUUACAUGAGGAUCACCCAUGUAUAACAUGAAUUAAUU [SSNG1/9-B3] (Eterna round: R96, puzzle: Same State NG 1) | 25.5 nM | 27.5 nM | 32.1 nM | – | – | – |
| GCGAGCGUACUUGCAGACAUGAGGAUCACCCAUGUAACUGGACAGGAUAUGGUACCGUUUCGGUACCAGAAGGGUUUAUAUGUC [JL SSNG3 3.52] (Eterna round: R96, puzzle: Same State NG 3) | 40.4 nM | 25.7 nM | 57.4 nM | – | – | – |
